Test results as given in the supplement of paper PMC10567573.

B1: MLL5 (parent)
chain: TYLCERCQPRNLDKERAVLLQRRK

Variants of: B1
Assay: protein stability index of a GFP-peptide fusion (GPS, HEK-293T) (PSI 1-6); higher = more stable
Settings: c terminus: a fixed tail appended
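Note: lentivirally expressed fusions sorted by FACS into six bins by GFP to DsRed ratio, PSI derived from sequencing read proportions per bin multiplied by bin number.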

| Variant | protein stability index |
| --- | --- |
| TYLCERCQPPNLDKERAVLLQRRK | 2.67 |
| TYLCERCQPNNLDKERAVLLQRRK | 2.84 |
| TYLCERCQPHNLDKERAVLLQRRK | 1.72 |
| TYLCERCQPGNLDKERAVLLQRRK | 3.56 |
| TYLCERCQPYNLDKERAVLLQRRK | 2.04 |
| TYLCERCQPSNLDKERAVLLQRRK | 2.44 |
| TYLCERCQPANLDKERAVLLQRRK | 2.28 |
| TYLCERCQPINLDKERAVLLQRRK | 2.25 |
| TYLCERCQPTNLDKERAVLLQRRK | 2.29 |
| TYLCERCQPENLDKERAVLLQRRK | 1.99 |
| TYLCERCQPQNLDKERAVLLQRRK | 2.48 |
| TYLCERCQPVNLDKERAVLLQRRK | 2.17 |
| TYLCERCQPLNLDKERAVLLQRRK | 1.83 |
| TYLCERCQPWNLDKERAVLLQRRK | 1.66 |
| TYLCERCQPMNLDKERAVLLQRRK | 2.25 |
| TYLCERCQPFNLDKERAVLLQRRK | 2.28 |
| TYLCERCQPDNLDKERAVLLQRRK | 2.25 |
| TYLCERCQPCNLDKERAVLLQRRK | 2.54 |
| TYLCERCQPKNLDKERAVLLQRRK | 1.74 |
| TYLCERCQPRNLHKERAVLLQRRK | 2.64 |
| TYLCERCQPRNLKKERAVLLQRRK | 2.71 |
| TYLCERCQPRNLSKERAVLLQRRK | 2.76 |
| TYLCERCQPRNLWKERAVLLQRRK | 2.16 |
| TYLCERCQPRNLFKERAVLLQRRK | 1.78 |

| Variant | protein stability index |
| --- | --- |
| TYLCERCQPRNLAKERAVLLQRRK | 2.7 |
| TYLCERCQPRNLIKERAVLLQRRK | 2.23 |
| TYLCERCQPRNLYKERAVLLQRRK | 2.48 |
| TYLCERCQPRNLMKERAVLLQRRK | 2 |
| TYLCERCQPRNLQKERAVLLQRRK | 2.53 |
| TYLCERCQPRNLEKERAVLLQRRK | 3.13 |
| TYLCERCQPRNLVKERAVLLQRRK | 1.88 |
| TYLCERCQPRNLPKERAVLLQRRK | 1.92 |
| TYLCERCQPRNLGKERAVLLQRRK | 2.71 |
| TYLCERCQPRNLNKERAVLLQRRK | 2.47 |
| TYLCERCQPRNLCKERAVLLQRRK | 2.24 |
| TYLCTRCQPRNLDKERAVLLQRRK | 1.61 |
| TYLCIRCQPRNLDKERAVLLQRRK | 2.47 |
| TYLCWRCQPRNLDKERAVLLQRRK | 2.4 |
| TYLCFRCQPRNLDKERAVLLQRRK | 1.94 |
| TYLCGRCQPRNLDKERAVLLQRRK | 2.28 |
| TYLCARCQPRNLDKERAVLLQRRK | 1.91 |
| TYLCDRCQPRNLDKERAVLLQRRK | 2.87 |
| TYLCLRCQPRNLDKERAVLLQRRK | 1.73 |
| TYLCNRCQPRNLDKERAVLLQRRK | 1.94 |
| TYLCCRCQPRNLDKERAVLLQRRK | 1.63 |
| TYLCHRCQPRNLDKERAVLLQRRK | 2.12 |
| TYLCVRCQPRNLDKERAVLLQRRK | 3.05 |
| TYLCQRCQPRNLDKERAVLLQRRK | 1.76 |

| Variant | protein stability index |
| --- | --- |
| TYLCSRCQPRNLDKERAVLLQRRK | 2.23 |
| TYLCKRCQPRNLDKERAVLLQRRK | 1.79 |
| TYLCERCQNRNLDKERAVLLQRRK | 3.62 |
| TYLCERCQDRNLDKERAVLLQRRK | 2.32 |
| TYLCERCQMRNLDKERAVLLQRRK | 2.08 |
| TYLCERCQLRNLDKERAVLLQRRK | 2.69 |
| TYLCERCQERNLDKERAVLLQRRK | 3.09 |
| TYLCERCQSRNLDKERAVLLQRRK | 2.27 |
| TYLCERCQCRNLDKERAVLLQRRK | 2.76 |
| TYLCERCQYRNLDKERAVLLQRRK | 3.52 |
| TYLCERCQRRNLDKERAVLLQRRK | 2.35 |
| TYLCERCQIRNLDKERAVLLQRRK | 1.91 |
| TYLCERCQGRNLDKERAVLLQRRK | 2.68 |
| TYLCERCQQRNLDKERAVLLQRRK | 3.16 |
| TYLCERCQHRNLDKERAVLLQRRK | 1.97 |
| TYLCERCQTRNLDKERAVLLQRRK | 2.81 |
| TYLCERCQFRNLDKERAVLLQRRK | 2.15 |
| TYLCERCQVRNLDKERAVLLQRRK | 2.36 |
| TYLCERCQARNLDKERAVLLQRRK | 1.86 |
| TYLCERCMPRNLDKERAVLLQRRK | 1.67 |
| TYLCERCDPRNLDKERAVLLQRRK | 2.8 |
| TYLCERCCPRNLDKERAVLLQRRK | 1.38 |
| TYLCERCEPRNLDKERAVLLQRRK | 2.42 |
| TYLCERCRPRNLDKERAVLLQRRK | 2.44 |

| Variant | protein stability index |
| --- | --- |
| TYLCERCFPRNLDKERAVLLQRRK | 2.29 |
| TYLCERCAPRNLDKERAVLLQRRK | 2.74 |
| TYLCERCLPRNLDKERAVLLQRRK | 1.93 |
| TYLCERCPPRNLDKERAVLLQRRK | 3.38 |
| TYLCERCIPRNLDKERAVLLQRRK | 1.79 |
| TYLCERCWPRNLDKERAVLLQRRK | 4.94 |
| TYLCERCVPRNLDKERAVLLQRRK | 1.9 |
| TYLCERCTPRNLDKERAVLLQRRK | 2.72 |
| TYLCERCSPRNLDKERAVLLQRRK | 1.14 |
| TYLCERCKPRNLDKERAVLLQRRK | 2.05 |
| TYLCERCGPRNLDKERAVLLQRRK | 2.36 |
| TYLCERCYPRNLDKERAVLLQRRK | 1.5 |
| TYLCERCNPRNLDKERAVLLQRRK | 1.55 |
| TYLCERCQPRNLDKDRAVLLQRRK | 2.42 |
| TYLCERCQPRNLDKGRAVLLQRRK | 2.71 |
| TYLCERCQPRNLDKFRAVLLQRRK | 2.14 |
| TYLCERCQPRNLDKCRAVLLQRRK | 1.45 |
| TYLCEDCQPRNLDKERAVLLQRRK | 2.93 |
| TYLCEFCQPRNLDKERAVLLQRRK | 1.79 |
| TYLCENCQPRNLDKERAVLLQRRK | 2.81 |
| TYLCEGCQPRNLDKERAVLLQRRK | 4.25 |
| TYLCEQCQPRNLDKERAVLLQRRK | 2.53 |
| TYLCETCQPRNLDKERAVLLQRRK | 1.92 |
| TYLCESCQPRNLDKERAVLLQRRK | 2.83 |

| Variant | protein stability index |
| --- | --- |
| TYLCELCQPRNLDKERAVLLQRRK | 1.49 |
| TYLCEHCQPRNLDKERAVLLQRRK | 1.87 |
| TYLCEVCQPRNLDKERAVLLQRRK | 2.42 |
| TYLCECCQPRNLDKERAVLLQRRK | 2.2 |
| TYLCEKCQPRNLDKERAVLLQRRK | 1.59 |
| TYLCEYCQPRNLDKERAVLLQRRK | 2.83 |
| TYLCEPCQPRNLDKERAVLLQRRK | 3.84 |
| TYLCEWCQPRNLDKERAVLLQRRK | 1.53 |
| TYLCEECQPRNLDKERAVLLQRRK | 3.87 |
| TYLCEICQPRNLDKERAVLLQRRK | 2.07 |
| TYLCEMCQPRNLDKERAVLLQRRK | 1.81 |
| TYLCERCQPRELDKERAVLLQRRK | 1.52 |
| TYLCERCQPRCLDKERAVLLQRRK | 2.11 |
| TYLCERCQPRILDKERAVLLQRRK | 1.68 |
| TYLCERCQPRLLDKERAVLLQRRK | 2.12 |
| TYLCERCQPRKLDKERAVLLQRRK | 2.05 |
| TYLCERCQPRPLDKERAVLLQRRK | 2.18 |
| TYLCERCQPRSLDKERAVLLQRRK | 2.32 |
| TYLCERCQPRALDKERAVLLQRRK | 2.05 |
| TYLCERCQPRDLDKERAVLLQRRK | 2.02 |
| TYLCERCQPRYLDKERAVLLQRRK | 1.43 |
| TYLCERCQPRFLDKERAVLLQRRK | 1.9 |
| TYLCERCQPRRLDKERAVLLQRRK | 2.15 |
| TYLCERCQPRTLDKERAVLLQRRK | 3.08 |

| Variant | protein stability index |
| --- | --- |
| TYLCERCQPRQLDKERAVLLQRRK | 2.41 |
| TYLCERCQPRGLDKERAVLLQRRK | 2.42 |
| TYLCERCQPRMLDKERAVLLQRRK | 2.04 |
| TYLCERCQPRHLDKERAVLLQRRK | 2.82 |
| TYLCERCQPRWLDKERAVLLQRRK | 2.09 |
| TYLRERCQPRNLDKERAVLLQRRK | 3.67 |
| TYLMERCQPRNLDKERAVLLQRRK | 3.52 |
| TYLWERCQPRNLDKERAVLLQRRK | 2.6 |
| TYLQERCQPRNLDKERAVLLQRRK | 3.56 |
| TYLVERCQPRNLDKERAVLLQRRK | 3.12 |
| TYLNERCQPRNLDKERAVLLQRRK | 3.9 |
| TYLTERCQPRNLDKERAVLLQRRK | 4.07 |
| TYLPERCQPRNLDKERAVLLQRRK | 4.26 |
| TYLSERCQPRNLDKERAVLLQRRK | 3.95 |
| TYLCERCQPRNLDVERAVLLQRRK | 3.34 |
| TYLCERCQPRNLDRERAVLLQRRK | 2.19 |
| TYLCERCQPRNLDTERAVLLQRRK | 3.29 |
| TYLCERCQPRNLDHERAVLLQRRK | 1.74 |
| TYLCERCQPRNLDMERAVLLQRRK | 3.36 |
| TYLCERCQPRNLDFERAVLLQRRK | 2.34 |
| TYLCERCQPRNLDWERAVLLQRRK | 2.89 |
| TYLCERCQPRNLDDERAVLLQRRK | 1.98 |
| TYLCERCQPRNLDGERAVLLQRRK | 1.77 |
| TYLCERCQPRNLDPERAVLLQRRK | 1.96 |

| Variant | protein stability index |
| --- | --- |
| TYLCERCQPRNLDNERAVLLQRRK | 2.29 |
| TYLCERCQPRNLDIERAVLLQRRK | 1.87 |
| TYLCERCQPRNLDSERAVLLQRRK | 2.51 |
| TYLCERCQPRNLDAERAVLLQRRK | 2.29 |
| TYLCERCQPRNLDCERAVLLQRRK | 1.93 |
| TYLCERCQPRNLDLERAVLLQRRK | 3.62 |
| TYLCERCQPRNLDYERAVLLQRRK | 2.64 |
| TYLCERCQPRNLDQERAVLLQRRK | 2.23 |
| TYLCERCQPRNGDKERAVLLQRRK | 2.71 |
| TYLCERCQPRNADKERAVLLQRRK | 2.56 |
| TYLCERCQPRNNDKERAVLLQRRK | 2.25 |
| TYLCERCQPRNFDKERAVLLQRRK | 2.11 |
| TYLCERCQPRNEDKERAVLLQRRK | 3.2 |
| TYLCERCQPRNKDKERAVLLQRRK | 2.96 |
| TYLCERCQPRNIDKERAVLLQRRK | 2.17 |
| TYLCERCQPRNQDKERAVLLQRRK | 3.79 |
| TYLCERCQPRNRDKERAVLLQRRK | 2.02 |
| TYLCERCQPRNMDKERAVLLQRRK | 3.49 |
| TYLCERCQPRNCDKERAVLLQRRK | 1.85 |
| TYLCERCQPRNDDKERAVLLQRRK | 2.01 |
| TYLCERCQPRNTDKERAVLLQRRK | 2.63 |
| TYLCERCQPRNYDKERAVLLQRRK | 1.71 |
| TYLCERCQPRNWDKERAVLLQRRK | 1.61 |
| TYLCERCQPRNPDKERAVLLQRRK | 2.69 |

| Variant | protein stability index |
| --- | --- |
| TYLCERCQPRNHDKERAVLLQRRK | 1.98 |
| TYLCERCQPRNVDKERAVLLQRRK | 2.22 |
| TYLCERTQPRNLDKERAVLLQRRK | 4.37 |
| TYLCERHQPRNLDKERAVLLQRRK | 3.12 |
| TYLCERAQPRNLDKERAVLLQRRK | 4.59 |
| TYLCERRQPRNLDKERAVLLQRRK | 4.03 |
| TYLCERNQPRNLDKERAVLLQRRK | 3.93 |
| TYLCERLQPRNLDKERAVLLQRRK | 3.12 |
| TYLCERQQPRNLDKERAVLLQRRK | 3.65 |
| TYLCERVQPRNLDKERAVLLQRRK | 3.32 |
| TYLCERIQPRNLDKERAVLLQRRK | 3.76 |
| TYLCERWQPRNLDKERAVLLQRRK | 3.6 |
| TYLCERGQPRNLDKERAVLLQRRK | 3.59 |
| TYLCERMQPRNLDKERAVLLQRRK | 3.2 |
| TYLCERPQPRNLDKERAVLLQRRK | 3.94 |
| TYLCERKQPRNLDKERAVLLQRRK | 3.34 |
| TYLCERDQPRNLDKERAVLLQRRK | 4.49 |
| TYLCEREQPRNLDKERAVLLQRRK | 4.89 |
| TYLCERSQPRNLDKERAVLLQRRK | 4.63 |
| TYLCERFQPRNLDKERAVLLQRRK | 3.27 |
